Results published in patent publication US20240343800A1 (Merck KGaA, published 2024).

Legend:
[1] = target: T1, mouse ROR1 (on 4T1 cells engineered to overexpress it) (mouse, UniProt Q9Z139 30-937); assay: flow cytometry, 4T1 cells overexpressing mouse ROR1
T1 construct: whole, on cells; also called muROR1; mROR1
Method: (§1) After 15-minutes of incubation at room temperature, the cells were washed twice with 200 μL of PBS by centrifugation at 500×g for 5 minutes at room temperature and resuspended in […] of 10% goat serum in BD staining buffer (BD Biosciences, Cat No: 554657). […] The plates were then covered with foil to avoid direct light and incubated for 60 minutes at 4° C. […] After incubating for 30 minutes at 4° C., the cells were washed twice with 200 μL of PBS by centrifugation at 500×g for 5 minutes at room temperature and resuspended into 100 μL of fixation buffer (BioLegend, Cat No: 420801). The samples were then analyzed on a flow cytometer for binding signal using FlowJo software. ROR and CD3 binding EC₅₀s (concentration vs mean fluorescence intensity (MFI)) for reference molecules and test bispecific TCEs were obtained using 4-parameter non-linear regression curve fitting in GraphPad Prism.

[2] = target: T2, cynomolgus CD3 (on cynomolgus pan-T cells) (cynomolgus, UniProt Q95LI5 22-198); assay: flow cytometry, cynomolgus pan-T cells
T2 construct: whole, on cells
Method: as §1

[3] = target: T3, human CD3 (on Jurkat T cells or human CD8+ T cells) (human, UniProt P07766 23-207; P09693 23-182; P04234 22-171; P20963 22-164); assay: flow cytometry, human CD8+ T cells
T3 construct: Entries are printed with signal peptides; also called huCD3; CD3ε
Method: as §1

[4] = target: T1, mouse ROR1 (on 4T1 cells engineered to …); assay: flow cytometry; reference: human ROR1 on MDA-MB-231 cells
[5] = target: T4, human ROR1 (on cells) (human, UniProt Q01973 30-937); assay: cell-based or functional assay
[6] = target: T4, human ROR1 (on cells); assay: flow cytometry, ROR1+ MDA-MB-231 cells
Method: as §1

[7] = target: T4, human ROR1 (on cells); assay: cell-based or functional assay; remark: listed apart in the source
[8] = target: T4, human ROR1 (on cells); assay: cell-based or functional assay; remark: listed apart in the source
[9] = target: T4, human ROR1 (on cells); assay: cell-based or functional assay; remark: listed apart in the source

T2 sequence (Q95LI5 22-198): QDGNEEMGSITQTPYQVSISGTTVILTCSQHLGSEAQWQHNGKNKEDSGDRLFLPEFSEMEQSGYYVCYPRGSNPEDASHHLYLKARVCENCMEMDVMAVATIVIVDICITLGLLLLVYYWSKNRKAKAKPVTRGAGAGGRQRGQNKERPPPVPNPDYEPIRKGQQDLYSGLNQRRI
T3 sequence (P07766 23-207 limits assumed, chain 1 of 4): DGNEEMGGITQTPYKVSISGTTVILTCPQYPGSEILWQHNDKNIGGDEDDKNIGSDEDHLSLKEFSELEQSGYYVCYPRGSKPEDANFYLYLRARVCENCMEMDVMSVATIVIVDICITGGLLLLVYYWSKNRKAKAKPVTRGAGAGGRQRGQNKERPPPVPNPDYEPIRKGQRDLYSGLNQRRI
T3 sequence (P09693 23-182 limits assumed, chain 2 of 4): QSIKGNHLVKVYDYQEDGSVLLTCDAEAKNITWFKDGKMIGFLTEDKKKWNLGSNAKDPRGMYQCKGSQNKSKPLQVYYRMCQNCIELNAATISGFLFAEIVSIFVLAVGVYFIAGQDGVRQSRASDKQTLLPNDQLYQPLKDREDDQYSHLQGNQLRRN
T3 sequence (P04234 22-171 limits assumed, chain 3 of 4): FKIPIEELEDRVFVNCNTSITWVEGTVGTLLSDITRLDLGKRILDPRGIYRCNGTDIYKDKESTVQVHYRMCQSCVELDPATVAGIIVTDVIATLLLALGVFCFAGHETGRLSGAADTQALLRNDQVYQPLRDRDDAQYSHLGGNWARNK
T3 sequence (P20963 22-164 limits assumed, chain 4 of 4): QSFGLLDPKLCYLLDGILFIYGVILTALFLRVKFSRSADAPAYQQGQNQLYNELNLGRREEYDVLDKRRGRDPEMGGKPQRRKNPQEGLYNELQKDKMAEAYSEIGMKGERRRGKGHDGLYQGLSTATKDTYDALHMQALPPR

Row | Binder | EC50 [1] | EC50 [2] | EC50 [3] | fold difference in apparent ROR1 binding affinity between human and mouse ROR1 [4] | IFNγ release AUC, PBMCs: MDA-MB-231-0.2 [5] | IFNγ release AUC, PBMCs: MDA-MB-231-0.4 [5] | IFNγ release AUC, PBMCs: MDA-MB-231-0.6 [5] | IFNγ release AUC, PBMCs: MDA-MB-231-1.3 [5] | IFNγ release AUC, PBMCs: MDA-MB-231-7 [5] | IFNγ release EC50, PBMCs: MDA-MB-231-0.2 [5] | IFNγ release EC50, PBMCs: MDA-MB-231-0.4 [5] | IFNγ release EC50, PBMCs: MDA-MB-231-0.6 [5] | IFNγ release EC50, PBMCs: MDA-MB-231-1.3 [5] | IFNγ release EC50, PBMCs: MDA-MB-231-7 [5] | IFNγ release Emax, PBMCs: MDA-MB-231-0.2 [5] | IFNγ release Emax, PBMCs: MDA-MB-231-0.4 [5] | IFNγ release Emax, PBMCs: MDA-MB-231-0.6 [5] | IFNγ release Emax, PBMCs: MDA-MB-231-1.3 [5] | IFNγ release Emax, PBMCs: MDA-MB-231-7 [5] | EC50 [6] | other results
1 | 82H02 TCE #1 (sequence optimized 82H02 bispecific TCE in Format 1A, high ROR1 / high CD3 affinity) (bispecific antibody, also called 82H02 #1; 82H02 VL1.07x1F3.5-VH1.03) heavy 1: EVQLVESGGGLVQPGGSLKLSCAASGFTFNTYAMNWVRQASGKGLEWVGRIRSKYNNYATYYADSVKGRFTISRDDSKNTLYLQMNSLKTEDTAVYYCVRHGNFGASYVSWFAYWGQGTMVTVSSASTKGPSVFPLAPSSKSTSGGTAALGCLVKDYFPEPVTVSWNSGALTSGVHTFPAVLQSSGLYSLSSVVTVPSSSLGTQTYICNVNHKPSNTKVDKKVEPKSCDKTHTCPPCPAPEAAGGPSVFLFPPKPKDTLMISRTPEVTCVVVDVSHEDPEVKFNWYVDGVEVHNAKTKPREEQYNSTYRVVSVLTVLHQDWLNGKEYKCKVSNKALGAPIEKTISKAKGQPFRPEVHLLPPSREEMTKNQVSLTCLARGFYPKDIAVEWESNGQPENNYKTTPSRQEPSQGTTTFAVTSKLTVDKSRWQQGNVFSCSVMHEALHNHYTQKTISLSPGK heavy 2: EIVLTQSPATLSLSPGERATLSCRASQSVSSYLAWYQQKPGQAPRLLIYDASNRATGIPARFSGSGSGTDFTLTISSLEPEDFAVYYCQQRSNWPPSTFGQGTRLEIKGGGGSGGGGSGGGGSGGGGSEVQLLESGGGLVQPGGSLRLSCAASGFTFTSYAMSWVRQAPGKGLEWVSTISGSGGGTYYTDSVKGRFTISRDNSKNTLYLQMNSLRAEDTAVYYCAQGSSIFDYWGQGTLVTVSSEPKSSDKTHTCPPCPAPEAAGGPSVFLFPPKPKDTLMISRTPEVTCVVVDVSHEDPEVKFNWYVDGVEVHNAKTKPREEQYNSTYRVVSVLTVLHQDWLNGKEYKCKVSNKALGAPIEKTISKAKGQPREPQVYTLPPPSEELALNELVTLTCLVKGFYPSDIAVEWLQGSQELPREKYLTWAPVLDSDGSFFLYSILRVAAEDWKKGDTFSCSVMHEALHNHYTQKSLDRSPGKGGGGSGGGGSGGGGSGGGGSEIVLTQSPATLSLSPGERATLSCRASQSVSSYLAWYQQKPGQAPRLLIYDASNRATGIPARFSGSGSGTDFTLTISSLEPEDFAVYYCQQRSNWPPSTFGQGTRLEIKGGGGSGGGGSGGGGSGGGGSEVQLLESGGGLVQPGGSLRLSCAASGFTFTSYAMSWVRQAPGKGLEWVSTISGSGGGTYYTDSVKGRFTISRDNSKNTLYLQMNSLRAEDTAVYYCAQGSSIFDYWGQGTLVTVSS light: QAVVTQEPSLTVSPGGTVTLTCRSSTGAVTTSNYANWVQQKPGQAPRGLIGGTNKRAPGTPARFSGSLLGGKAALTLSGVQPEDEAEYYCALWYSNLWVFGGGTKLTVLGQPKAAPSVTLFPPSSEELQANKATLVCLISDFYPGAVTVAWKADSSPVKAGVETTTPSKQSNNKYAASSYLSLTPEQWKSHRSYSCQVTHEGSTVEKTVAPTECS | 2190 pM | 4100 pM | 2800 pM | ~3 fold | 2.09e+06 | 2.43e+06 | 3.15e+06 | 4.93e+06 | 5.16e+06 | 143 pM | 123 pM | 80.3 pM | 24.3 pM | 20.4 pM | 2860% | 3050% | 3980% | 5260% | 5420% | 810 pM | TDCC AUC, PBMCs: MDA-MB-231-0.2 [7]: 39000; TDCC AUC, PBMCs: MDA-MB-231-0.4 [7]: 50200; TDCC AUC, PBMCs: MDA-MB-231-0.6 [7]: 57100; TDCC AUC, PBMCs: MDA-MB-231-1.3 [7]: 64800; TDCC AUC, PBMCs: MDA-MB-231-7 [7]: 74200; TDCC EC50, PBMCs: MDA-MB-231-0.2 [7]: 11.9 pM; TDCC EC50, PBMCs: MDA-MB-231-0.4 [7]: 10.3 pM; TDCC EC50, PBMCs: MDA-MB-231-0.6 [7]: 10 pM; TDCC EC50, PBMCs: MDA-MB-231-1.3 [7]: 7.03 pM; TDCC EC50, PBMCs: MDA-MB-231-7 [7]: 4.33 pM; TDCC Emax, PBMCs: MDA-MB-231-0.2 [7]: 40.7%; TDCC Emax, PBMCs: MDA-MB-231-0.4 [7]: 52.2%; TDCC Emax, PBMCs: MDA-MB-231-0.6 [7]: 60.2%; TDCC Emax, PBMCs: MDA-MB-231-1.3 [7]: 66.5%; TDCC Emax, PBMCs: MDA-MB-231-7 [7]: 75.8%; TDCC EC50, PBMCs: MDA-MB-231 [8]: 24600 pM; IFNγ release EC50, PBMCs: MDA-MB-231 [9]: 205000 pM; Max IFNγ, PBMCs: MDA-MB-231 [9]: 1120 pg/mL
2 | 82H02 TCE #2 (sequence optimized 82H02 bispecific TCE in Format 1A, high ROR1 / low CD3 affinity) (bispecific antibody, also called 82H02 #2; 82H02 VL1.07x1F3.5-VH1.01-VL1.01) heavy 1: EVQLVESGGGLVQPGGSLKLSCAASGFTFNTYAMNWVRQASGKGLEWVGRIRSKYNNYATYYADSVKGRFTISRDDSKNTLYLQMNSLKTEDTAVYYCVRHGNFGNSYVSWFAYWGQGTMVTVSSASTKGPSVFPLAPSSKSTSGGTAALGCLVKDYFPEPVTVSWNSGALTSGVHTFPAVLQSSGLYSLSSVVTVPSSSLGTQTYICNVNHKPSNTKVDKKVEPKSCDKTHTCPPCPAPEAAGGPSVFLFPPKPKDTLMISRTPEVTCVVVDVSHEDPEVKFNWYVDGVEVHNAKTKPREEQYNSTYRVVSVLTVLHQDWLNGKEYKCKVSNKALGAPIEKTISKAKGQPFRPEVHLLPPSREEMTKNQVSLTCLARGFYPKDIAVEWESNGQPENNYKTTPSRQEPSQGTTTFAVTSKLTVDKSRWQQGNVFSCSVMHEALHNHYTQKTISLSPGK heavy 2: EIVLTQSPATLSLSPGERATLSCRASQSVSSYLAWYQQKPGQAPRLLIYDASNRATGIPARFSGSGSGTDFTLTISSLEPEDFAVYYCQQRSNWPPSTFGQGTRLEIKGGGGSGGGGSGGGGSGGGGSEVQLLESGGGLVQPGGSLRLSCAASGFTFTSYAMSWVRQAPGKGLEWVSTISGSGGGTYYTDSVKGRFTISRDNSKNTLYLQMNSLRAEDTAVYYCAQGSSIFDYWGQGTLVTVSSEPKSSDKTHTCPPCPAPEAAGGPSVFLFPPKPKDTLMISRTPEVTCVVVDVSHEDPEVKFNWYVDGVEVHNAKTKPREEQYNSTYRVVSVLTVLHQDWLNGKEYKCKVSNKALGAPIEKTISKAKGQPREPQVYTLPPPSEELALNELVTLTCLVKGFYPSDIAVEWLQGSQELPREKYLTWAPVLDSDGSFFLYSILRVAAEDWKKGDTFSCSVMHEALHNHYTQKSLDRSPGKGGGGSGGGGSGGGGSGGGGSEIVLTQSPATLSLSPGERATLSCRASQSVSSYLAWYQQKPGQAPRLLIYDASNRATGIPARFSGSGSGTDFTLTISSLEPEDFAVYYCQQRSNWPPSTFGQGTRLEIKGGGGSGGGGSGGGGSGGGGSEVQLLESGGGLVQPGGSLRLSCAASGFTFTSYAMSWVRQAPGKGLEWVSTISGSGGGTYYTDSVKGRFTISRDNSKNTLYLQMNSLRAEDTAVYYCAQGSSIFDYWGQGTLVTVSS light: QTVVTQEPSLTVSPGGTVTLTCASSTGAVTTSNYANWVQQKPGQAPRALIGGTNKRAPGTPARFSGSLLGGKAALTLSGVQPEDEAEYYCALWYSNLWVFGGGTKLTVLGQPKAAPSVTLFPPSSEELQANKATLVCLISDFYPGAVTVAWKADSSPVKAGVETTTPSKQSNNKYAASSYLSLTPEQWKSHRSYSCQVTHEGSTVEKTVAPTECS | 2240 pM | 26200 pM | 19800 pM | ~3 fold | 1.55e+06 | 2.03e+06 | 9.77e+06 | 4.49e+06 | 4.68e+06 | 192 pM | 151 pM | 97.7 pM | 30.6 pM | 26.5 pM | 2270% | 2670% | 3670% | 4850% | 4970% | 720 pM | TDCC AUC, PBMCs: MDA-MB-231-0.2 [7]: 35700; TDCC AUC, PBMCs: MDA-MB-231-0.4 [7]: 47600; TDCC AUC, PBMCs: MDA-MB-231-0.6 [7]: 54100; TDCC AUC, PBMCs: MDA-MB-231-1.3 [7]: 63700; TDCC AUC, PBMCs: MDA-MB-231-7 [7]: 72000; TDCC EC50, PBMCs: MDA-MB-231-0.2 [7]: 13.7 pM; TDCC EC50, PBMCs: MDA-MB-231-0.4 [7]: 12.5 pM; TDCC EC50, PBMCs: MDA-MB-231-0.6 [7]: 10.5 pM; TDCC EC50, PBMCs: MDA-MB-231-1.3 [7]: 8.96 pM; TDCC EC50, PBMCs: MDA-MB-231-7 [7]: 4.71 pM; TDCC Emax, PBMCs: MDA-MB-231-0.2 [7]: 37.5%; TDCC Emax, PBMCs: MDA-MB-231-0.4 [7]: 50.2%; TDCC Emax, PBMCs: MDA-MB-231-0.6 [7]: 56.8%; TDCC Emax, PBMCs: MDA-MB-231-1.3 [7]: 65.4%; TDCC Emax, PBMCs: MDA-MB-231-7 [7]: 74.1%; TDCC EC50, PBMCs: MDA-MB-231 [8]: 43900 pM; IFNγ release EC50, PBMCs: MDA-MB-231 [9]: 265000 pM; Max IFNγ, PBMCs: MDA-MB-231 [9]: 1000 pg/mL
